Experimental data published in the supplement of paper PMC5998384.

What was measured:
HeLa Kyoto [1] = experiment: solubility change mitosis vs G1/S (difference of NP-40 vs SDS log2 ratios) (log2 ratio difference); higher = more soluble in mitosis
HeLa Kyoto [2] = experiment: solubility in G1/S (NP-40 vs SDS abundance) (log2 ratio); higher = more soluble; settings: cell cycle stage: G1/S
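Wherever solubility change mitosis vs G1/S (difference of NP-40 vs SDS log2 ratios) is given: synchronized HeLa Kyoto cells (double thymidine block for G1/S, nocodazole release for mitosis), protein amounts in NP-40 versus SDS lysates quantified by mass spectrometry, three biological replicates.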
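Wherever solubility in G1/S (NP-40 vs SDS abundance) is given: HeLa Kyoto cells arrested at G1/S by double thymidine block, proteins quantified by TMT10plex mass spectrometry in mild NP-40 versus SDS extracts, three biological replicates.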

Sequence	solubility change mitosis (log2) (HeLa Kyoto [1])	solubility in G1/S (log2) (HeLa Kyoto [2])
MGMKVPGKGESGPSALLTPPMSSSSRGPGAGARRRRTRCRRCRACVRTECGDCHFCRDMKKFGGPGRMKQSCLLRQCTAPVLPHTAVCLLCGEAGKEDTVEGEEEKFGLSLMECTICNEIVHPGCLKMGKAEGVINAEIPNCWECPRCTQEGRTSKDSGEGPGRRRADNGEEGASLGSGWKLTEEPPLPPPPPRRKGPLPAGPPPEDVPGPPKRKEREAGNEPPTPRKKVKGGRERHLKKVGGDACLLRGSDPGGPGLLPPRVLNPSQAFSSCHPGLPPENWEKPKPPLASAEGPAVPSPSPQREKLERFKRMCQLLERVPDTSSSSSDSDSDSDSSGTSLSEDEAPGEARNGRRPARGSSGEKENRGGRRAVRPGSGGPLLSWPLGPAPPPRPPQLERHVVRPPPRSPEPDTLPLAAGSDHPLPRAAWLRVFQHLGPRELCICMRVCRTWSRWCYDKRLWPRMDLSRRKSLTPPMLSGVVRRQPRALDLSWTGVSKKQLMWLLNRLQGLQELVLSGCSWLSVSALGSAPLPALRLLDLRWIEDVKDSQLRELLLPPPDTKPGQTESRGRLQGVAELRLAGLELTDASLRLLLRHAPQLSALDLSHCAHVGDPSVHLLTAPTSPLRETLVHLNLAGCHRLTDHCLPLFRRCPRLRRLDLRSCRQLSPEACARLAAAGPPGPFRCPEEKLLLKDS [FBXL19]	-0.126	-0.317
MGNLESAEGVPGEPPSVPLLLPPGKMPMPEPCELEERFALVLSSMNLPPDKARLLRQYDNEKKWDLICDQERFQVKNPPHTYIQKLQSFLDPSVTRKKFRRRVQESTKVLRELEISLRTNHIGWVREFLNDENKGLDVLVDYLSFAQCSVMFDFEGLESGDDGAFDKLRSWSRSIEDLQPPSALSAPFTNSLARSARQSVLRYSTLPGRRALKNSRLVSQKDDVHVCILCLRAIMNYQYGFNLVMSHPHAVNEIALSLNNKNPRTKALVLELLAAVCLVRGGHEIILAAFDNFKEVCKELHRFEKLMEYFRNEDSNIDFMVACMQFINIVVHSVEDMNFRVHLQYEFTKLGLEEFLQKSRHTESEKLQVQIQAYLDNVFDVGGLLEDAETKNVALEKVEELEEHVSHLTEKLLDLENENMMRVAELEKQLLQREKELESIKETYENTSHQVHTLRRLIKEKEEAFQRRCHLEPNVRGLESVDSEALARVGPAELSEGMPPSDLDLLAPAPPPEEVLPLPPPPAPPLPPPPPPLPDKCPPAPPLPGAAPSVVLTVGLSAIRIKKPIKTKFRLPVFNWTALKPNQISGTVFSELDDEKILEDLDLDKFEELFKTKAQGPALDLICSKNKTAQKAASKVTLLEANRAKNLAITLRKAGRSAEEICRAIHTFDLQTLPVDFVECLMRFLPTEAEVKLLRQYERERQPLEELAAEDRFMLLFSKVERLTQRMAGMAFLGNFQDNLQMLTPQLNAIIAASASVKSSQKLKQMLEIILALGNYMNSSKRGAVYGFKLQSLDLLLDTKSTDRKMTLLHFIALTVKEKYPDLANFWHELHFVEKAAAVSLENVLLDVKELGRGMELIRRECSIHDNSVLRNFLSTNEGKLDKLQRDAKTAEEAYNAVVRYFGESPKTTPPSVFFPVFVRFIRSYKEAEQENEARKKQEEVMREKQLAQEAKKLDAKTPSQRNKWQQQELIAELRRRQAKEHRPVYEGKDGTIEDIITVLKSVPFTARTAKRGSRFFCDAAHHDESNC [FMNL3]	0.267	-0.31
MGRGLLRGLWPLHIVLWTRIASTIPPHVQKSVNNDMIVTDNNGAVKFPQLCKFCDVRFSTCDNQKSCMSNCSITSICEKPQEVCVAVWRKNDENITLETVCHDPKLPYHDFILEDAASPKCIMKEKKKPGETFFMCSCSSDECNDNIIFSEEYNTSNPDLLLVIFQVTGISLLPPLGVAISVIIIFYCYRVNRQQKLSSTWETGKTRKLMEFSEHCAIILEDDRSDISSTCANNINHNTELLPIELDTLVGKGRFAEVYKAKLKQNTSEQFETVAVKIFPYEEYASWKTEKDIFSDINLKHENILQFLTAEERKTELGKQYWLITAFHAKGNLQEYLTRHVISWEDLRKLGSSLARGIAHLHSDHTPCGRPKMPIVHRDLKSSNILVKNDLTCCLCDFGLSLRLDPTLSVDDLANSGQVGTARYMAPEVLESRMNLENVESFKQTDVYSMALVLWEMTSRCNAVGEVKDYEPPFGSKVREHPCVESMKDNVLRDRGRPEIPSFWLNHQGIQMVCETLTECWDHDPEARLTAQCVAERFSELEHLDRLSGRSCSEEKIPEDGSLNTTK [TGFBR2]	-0.067	-0.228
MGSLSGLRLAAGSCFRLCERDVSSSLRLTRSSDLKRINGFCTKPQESPGAPSRTYNRVPLHKPTDWQKKILIWSGRFKKEDEIPETVSLEMLDAAKNKMRVKISYLMIALTVVGCIFMVIEGKKAAQRHETLTSLNLEKKARLKEEAAMKAKTE [FAM162A]	0.327	0.312
MGVALRKLTQWTAAGHGTGILEITPLNEAILKEIIVFVESFIYKHPQEAKFVFVEPLEWNTSLAPSAFESGYVVSETTVKSEEVDKNGQPLLFLSVPQIKIRSFGQLSRLLLIAKTGKLKEAQACVEANRDPIVKILGSDYNTMKENSIALNILGKITRDDDPESEIKMKIAMLLKQLDLHLLNHSLKHISLEISLSPMTVKKDIELLKRFSGKGNQTVLESIEYTSDYEFSNGCRAPPWRQIRGEICYVLVKPHDGETLCITCSAGGVFLNGGKTDDEGDVNYERKGSIYKNLVTFLREKSPKFSENMSKLGISFSEDQQKEKDQLGKAPKKEEAAALRKDISGSDKRSLEKNQINFWRNQMTKRWEPSLNWKTTVNYKGKGSAKEIQEDKHTGKLEKPRPSVSHGRAQLLRKSAEKIEETVSDSSSESEEDEEPPDHRQEASADLPSEYWQIQKLVKYLKGGNQTATVIALCSMRDFSLAQETCQLAIRDVGGLEVLINLLETDEVKCKIGSLKILKEISHNPQIRQNIVDLGGLPIMVNILDSPHKSLKCLAAETIANVAKFKRARRVVRQHGGITKLVALLDCAHDSTKPAQSSLYEARDVEVARCGALALWSCSKSHTNKEAIRKAGGIPLLARLLKTSHENMLIPVVGTLQECASEENYRAAIKAERIIENLVKNLNSENEQLQEHCAMAIYQCAEDKETRDLVRLHGGLKPLASLLNNTDNKERLAAVTGAIWKCSISKENVTKFREYKAIETLVGLLTDQPEEVLVNVVGALGECCQERENRVIVRKCGGIQPLVNLLVGINQALLVNVTKAVGACAVEPESMMIIDRLDGVRLLWSLLKNPHPDVKASAAWALCPCIKNAKDAGEMVRSFVGGLELIVNLLKSDNKEVLASVCAAITNIAKDQENLAVITDHGVVPLLSKLANTNNNKLRHHLAEAISRCCMWGRNRVAFGEHKAVAPLVRYLKSNDTNVHRATAQALYQLSEDADNCITMHENGAVKLLLDMVGSPDQDLQEAAAGCISNIRRLALATEKARYT [ARMC4]	0.00126	0.0866
MHQTLCLNPESLKMSACSDFVEHIWKPGSCKNCFCLRSDHQLVAGPPQPRAGSLPPPPRLPPRPENCRLEDEGVNSSPYSKPTIAVKPTMMSSEASDVWTEANLSAEVSQVIWRRAPGKLPLPKQEDAPVVYLGSFRGVQKPAGPSTSPDGNSRCPPAYTMVGLHNLEPRGERNIAFHPVSFPEEKAVHKEKPSFPYQDRPSTQESFRQKLAAFAGTTSGCHQGPGPLRESLPSEDDSDQRCSPSGDSEGGEYCSILDCCPGSPVAKAASQTAGSRGRHGGRDCSPTCWEQGKCSGPAEQEKRGPSFPKECCSQGPTAHPSCLGPKKLSLTSEAAISSDGLSCGSGSGSGSGASSPFVPHLESDYCSLMKEPAPEKQQDPGCPGVTPSRCLGLTGEPQPPAHPREATQPEPIYAESTKRKKAAPVPSKSQAKIEHAAAAQGQGQVCTGNAWAQKAASGWGRDSPDPTPQVSATITVMAAHPEEDHRTIYLSSPDSAVGVQWPRGPVSQNSEVGEEETSAGQGLSSRESHAHSASESKPKERPAIPPKLSKSSPVGSPVSPSAGGPPVSPLADLSDGSSGGSSIGPQPPSQGPADPAPSCRTNGVAISDPSRCPQPAASSASEQRRPRFQAGTWSRQCRIEEEEEVEQELLSHSWGRETKNGPTDHSNSTTWHRLHPTDGSSGQNSKVGTGMSKSASFAFEFPKDRSGIETFSPPPPPPKSRHLLKMNKSSSDLEKVSQGSAESLSPSFRGVHVSFTTGSTDSLASDSRTCSDGGPSSELAHSPTNSGKKLFAPVPFPSGSTEDVSPSGPQQPPPLPQKKIVSRAASSPDGFFWTQGSPKPGTASPKLNLSHSETNVHDESHFSYSLSPGNRHHPVFSSSDPLEKAFKGSGHWLPAAGLAGNRGGCGSPGLQCKGAPSASSSQLSVSSQASTGSTQLQLHGLLSNISSKEGTYAKLGGLYTQSLARLVAKCEDLFMGGQKKELHFNENNWSLFKLTCNKPCCDSGDAIYYCATCSEDPGSTYAVKICKAPEPKTVSYCSPSVPVHFNIQQDCGHFVASVPSSMLSSPDAPKDPVPALPTHPPAQEQDCVVVITREVPHQTASDFVRDSAASHQAEPEAYERRVCFLLLQLCNGLEHLKEHGIIHRDLCLENLLLVHCTLQAGPGPAPAPAPAPAPAAAAPPCSSAAPPAGGTLSPAAGPASPEGPREKQLPRLIISNFLKAKQKPGGTPNLQQKKSQARLAPEIVSASQYRKFDEFQTGILIYELLHQPNPFEVRAQLRERDYRQEDLPPLPALSLYSPGLQQLAHLLLEADPIKRIRIGEAKRVLQCLLWGPRRELVQQPGTSEEALCGTLHNWIDMKRALMMMKFAEKAVDRRRGVELEDWLCCQYLASAEPGALLQSLKLLQLL [SGK223]	-0.132	-0.249
MILTKAQYDEIAQCLVSVPPTRQSLRKLKQRFPSQSQATLLSIFSQEYQKHIKRTHAKHHTSEAIESYYQRYLNGVVKNGAAPVLLDLANEVDYAPSLMARLILERFLQEHEETPPSKSIINSMLRDPSQIPDGVLANQVYQCIVNDCCYGPLVDCIKHAIGHEHEVLLRDLLLEKNLSFLDEDQLRAKGYDKTPDFILQVPVAVEGHIIHWIESKASFGDECSHHAYLHDQFWSYWNRFGPGLVIYWYGFIQELDCNRERGILLKACFPTNIVTLCHSIA [C15ORF41]	0.0246	0.176
MIPLEKPGSGGSSPGATSGSGRAGRGLSGPCRPPPPPQARGLLTEIRAVVRTEPFQDGYSLCPGRELGRGKFAVVRKCIKKDSGKEFAAKFMRKRRKGQDCRMEIIHEIAVLELAQDNPWVINLHEVYETASEMILVLEYAAGGEIFDQCVADREEAFKEKDVQRLMRQILEGVHFLHTRDVVHLDLKPQNILLTSESPLGDIKIVDFGLSRILKNSEELREIMGTPEYVAPEILSYDPISMATDMWSIGVLTYVMLTGISPFLGNDKQETFLNISQMNLSYSEEEFDVLSESAVDFIRTLLVKKPEDRATAEECLKHPWLTQSSIQEPSFRMEKALEEANALQEGHSVPEINSDTDKSETKESIVTEELIVVTSYTLGQCRQSEKEKMEQKAISKRFKFEEPLLQEIPGEFIY [STK17A]	-0.0546	0.0848
MKKSYSGGTRTSSGRLRRLGDSSGPALKRSFEVEEVETPNSTPPRRVQTPLLRATVASSTQKFQDLGVKNSEPSARHVDSLSQRSPKASLRRVELSGPKAAEPVSRRTELSIDISSKQVENAGAIGPSRFGLKRAEVLGHKTPEPAPRRTEITIVKPQESAHRRMEPPASKVPEVPTAPATDAAPKRVEIQMPKPAEAPTAPSPAQTLENSEPAPVSQLQSRLEPKPQPPVAEATPRSQEATEAAPSCVGDMADTPRDAGLKQAPASRNEKAPVDFGYVGIDSILEQMRRKAMKQGFEFNIMVVGQSGLGKSTLINTLFKSKISRKSVQPTSEERIPKTIEIKSITHDIEEKGVRMKLTVIDTPGFGDHINNENCWQPIMKFINDQYEKYLQEEVNINRKKRIPDTRVHCCLYFIPATGHSLRPLDIEFMKRLSKVVNIVPVIAKADTLTLEERVHFKQRITADLLSNGIDVYPQKEFDEDSEDRLVNEKFREMIPFAVVGSDHEYQVNGKRILGRKTKWGTIEVENTTHCEFAYLRDLLIRTHMQNIKDITSSIHFEAYRVKRLNEGSSAMANGMEEKEPEAPEM [SEPT9]	-0.0335	0.198
